Data published in doi:10.1101/2025.05.16.654432.

Columns and labels:
Trigger Factor = Trigger Factor (UniProt P0A850); test: high-speed atomic force microscopy
[1] = target: ribosome-nascent chain complex (RNC) stalled on mTFP1-KCNQ helices A, TW, B-SecM arrest peptide (UniProt P0ADZ0); test: high-speed atomic force microscopy

Chain of Trigger Factor (P0A850 whole entry): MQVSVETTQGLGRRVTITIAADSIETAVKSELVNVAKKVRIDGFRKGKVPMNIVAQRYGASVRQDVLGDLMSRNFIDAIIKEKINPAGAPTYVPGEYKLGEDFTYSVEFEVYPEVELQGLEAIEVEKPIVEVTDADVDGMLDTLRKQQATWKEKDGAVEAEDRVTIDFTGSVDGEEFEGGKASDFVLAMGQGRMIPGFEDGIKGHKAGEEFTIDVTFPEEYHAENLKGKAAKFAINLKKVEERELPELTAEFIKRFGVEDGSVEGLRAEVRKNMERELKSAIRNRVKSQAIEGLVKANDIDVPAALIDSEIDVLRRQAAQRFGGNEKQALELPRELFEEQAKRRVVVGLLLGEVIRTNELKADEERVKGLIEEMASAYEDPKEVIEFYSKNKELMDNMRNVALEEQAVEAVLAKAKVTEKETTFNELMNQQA

Substance: Trigger Factor (from UniProt P0A850 1-432) (natural protein)
- stoichiometry N (Trigger Factor): 2
- duration of binding [1]: > 30 s
- duration of binding (second interaction, near bL17) [1]: < 15 s
- dwell time constant τ (first TF binding event) [1]: 8 s
- dwell time constant τ (first TF molecule) [1]: 8.3 s
- dwell time constant τ (second TF molecule, near bL17) [1]: 3.9 s
- stoichiometry N [1]: 2
